# Reference: patent publication US20160122405A1, “HOMEODOMAIN FUSION PROTEINS AND USES THEREOF” (priority 2013, published 2016)
# Substitutions are numbered along the chain they refer to. “Also recorded” adds a separate entry of the source. Like-named read-outs stand apart in the source and are kept apart here.
# B1: Fusion protein 3: SID-3XNLS-HFP, SID of SEQ ID NO: 12, SEQ ID NO: 38 (protein)
# chain: MVGMNIQLLLEAADYLERREREAEHGGDPKKKRKVDPKKKRKVDPKKKRKVGGDPERQVKIWFQNRRMKMKKINGGGDPVSQVSNWFGNKRIRYKKNIG
# B2: S1: SID-3XNLS-GG linker-HoxA9-G-PBX fusion protein, SEQ ID NO: 28 (protein)
# chain: MATAVGMNIQLLLEAADYLERREREAEHGYASMLPYDPKKKRKVDPKKKRKVDPKKKRKVGGDPERQVKIWFQNRRMKMKKINGDPVSQVSNWFGNKRIRYKKNIG
# B3: Fusion protein 4: SID-3XNLS-HFP, SID of SEQ ID NO: 13, SEQ ID NO: 39 (protein)
# chain: MVGMNIQLLLEAADYLERRERGGDPKKKRKVDPKKKRKVDPKKKRKVGGDPERQVKIWFQNRRMKMKKINGGGDPVSQVSNWFGNKRIRYKKNIG
# B4: S4: SID-3XNLS-GG linker-HoxA9-GGGG-PBX fusion protein, SEQ ID NO: 31 (protein)
# chain: MATAVGMNIQLLLEAADYLERREREAEHGYASMLPYDPKKKRKVDPKKKRKVDPKKKRKVGGDPERQVKIWFQNRRMKMKKINGGGGDPVSQVSNWFGNKRIRYKKNIG
# B5: S3: Full SID-3XNLS-HFP with GGG linker, SEQ ID NO: 30 / 35 (protein)
# chain: MATAVGMNIQLLLEAADYLERREREAEHGYASMLPYDPKKKRKVDPKKKRKVDPKKKRKVGGDPERQVKIWFQNRRMKMKKINGGGDPVSQVSNWFGNKRIRYKKNIG
# B6: S3 mutant: S3 with DNA base contact residues mutated to alanine, SEQ ID NO: 33 (HFP domain) / 46 (protein)
# chain: B5 chain with I70A, Q73A, N74A, M77A, N94A, N98A, R102A
# B7: S2: SID-3XNLS-GG linker-HoxA9-GG-PBX fusion protein, SEQ ID NO: 29 (protein)
# chain: MATAVGMNIQLLLEAADYLERREREAEHGYASMLPYDPKKKRKVDPKKKRKVDPKKKRKVGGDPERQVKIWFQNRRMKMKKINGGDPVSQVSNWFGNKRIRYKKNIG
# B8: Fusion protein 10: HFP-3XNLS-Full SID, SEQ ID NO: 45 (protein)
# chain: DPERQVKIWFQNRRMKMKKINGGGDPVSQVSNWFGNKRIRYKKNIGGGDPKKKRKVDPKKKRKVDPKKKRKVATAVGMNIQLLLEAADYLERREREAEHGYASMLPY
# Legend:
# [1] = system: Hoxa9-Meis1 immortalized AML model cells; assay: Growth deficit of construct-transduced AML cells versus non-transduced cells in same well; assay type: cell-based, murine; settings: for Activity: activity based upon growth deficit versus non-transduced cells in same well, constructs retrovirally transduced into AML cells
# Sin3 = assay: method not stated
# [2] = system: Hoxa9-Meis1 murine AML cells; assay type: in vivo, mice; settings: for Median Survival days: mouse, in vivo; for AML latency in vivo: versus vector control
# [3] = system: Mac-1 (CD11b), Gr-1 and FLT3R expression; assay: Flow cytometry of cell surface markers after transduction; assay type: cell-based, murine; settings: 30 days
# [4] = system: differentiation-specific genes (S100A8, myeloperoxidase, neutrophil elastase); assay: QPCR of differentiation-specific genes in transduced Hoxa9-Meis1 cells; assay type: cell-based; settings: Hoxa9-Meis1 murine cells, versus vector control
# [5] = system: Hoxa9 target genes (SOX4, CD34, FLT3R, FOXP1, DNAJC10); assay: QPCR of direct Hoxa9 target genes in Hoxa9/Meis1 cells; settings: 17 days after transduction, versus GFP control
# [6] = Hoxa9-Meis1 cells, retroviral expression
# [7] = listed as 3X glycine linker repressor construct
molecule,measurement,setting,value
"S2 mutant: S2 with DNA base contact residues of HFP domain mutated to alanine, SEQ ID NO: 32 (DPERQVKAWFAARRAKMKKINGGDPVSQVSAWFGAKRIAYKKNI)",growth phenotype (growth deficit / growth inhibition),[1],less growth inhibition
wild-type SID (Sin3-interacting domain of Mad1 protein) (from UniProt Q05195 5-29) (peptide),Kd,Sin3,70 nM
B1,Activity,[1],✓
B2,Median Survival days,[2],62 days
B3,Activity,[1],✓
B4,Median Survival days,[2],69 days
B5,growth phenotype (growth deficit / growth inhibition),[1]; [6],more growth deficit
same,growth phenotype (growth deficit / growth inhibition),"[1]; Hoxa9-Meis1 cells, retroviral expression, listed as HFP",significant growth defects
same,Activity,[1],✓
same,HFP-expressing cells as % of the population,"[1]; by day 8, IRES GFP vector, GFP vector control 80%",2%
same,cell-surface expression of myeloid differentiation markers Mac-1 and Gr-1,[3]; [7],increases in cell-surface expression of myeloid differentiation markers
same,surface expression of Flt3 receptor,[3]; [7],decreased surface expression
same,cell-surface expression of myeloid differentiation markers Mac-1 and Gr-1,[3]; listed as repressor HFP,increases expression of Gr-1 and Mac-1 differentiation markers
same,surface expression of Flt3 receptor,[3]; listed as repressor HFP,decreases expression of Flt3 receptor
same,mRNA levels of differentiation-specific genes,[4],higher mRNA levels
same,mRNA levels of differentiation-specific genes,[4]; [7],mRNA upregulation of differentiation-specific genes
same,mRNA levels of differentiation-specific genes,[4]; listed as repressor,elevates differentiation-specific genes
same,Median Survival days,[2],94 days
same,AML latency in vivo,[2],longer latency in vivo that was statistically significant
same,AML latency in vivo,[2]; listed as HFP repressor,significantly longer latency
same,AML latency in vivo,[2]; listed as repressor,longer latency
same,transcripts of Hoxa9 target genes,[5],suppresses multiple targets of Hoxa9; also recorded: suppresses transcripts of Hoxa9 target genes
same,transcripts of Hoxa9 target genes,[5]; [7],suppression of direct Hoxa9 transcriptional target genes
B6,growth phenotype (growth deficit / growth inhibition),[1]; [6],less growth inhibition
same,transcripts of Hoxa9 target genes,[5]; listed as mutant construct,little to no repression
B7,growth phenotype (growth deficit / growth inhibition),[1]; [6],more growth deficit
same,Median Survival days,[2],67 days
B8,Activity,[1],✓
